From the supplement of paper PMC12764529
± gives the half width of the 95% confidence interval.

Assays:
[1] = folding stability dG unfold from chymotrypsin proteolysis; higher = more stable
Protocol: (§1)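 Folding stability of de novo designed mini-proteins (<80 aa, no Cys; designed by TrROS, TrMRF, ProteinMPNN and the joint model) was measured by cDNA display proteolysis with trypsin and chymotrypsin. Each protease was used at 11 concentrations in a threefold dilution series plus a no-protease condition. K50 was inferred by Bayesian fitting of sequencing counts, and dG unfold was derived against a sequence-predicted unfolded-state K50 (Tsuboyama et al. method). Sequences shown include variable-length N-terminal GS-type padding (SAGGSAGG...) inside a display construct carrying a PA tag. Rows were kept only if the AF2 dimer inter-PAE was >15, to exclude likely homo-oligomers.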

[2] = folding stability dG unfold (combined trypsin and chymotrypsin); higher = more stable
Protocol: as §1

Sequence	folding stability dG unfold [1] [kcal/mol]	folding stability dG unfold [2] [kcal/mol]
SAGGSAPKIYSVEEKELPDNYRLIVFKADKSDPEFIEEIAELLPKEKVEPLSKSEDGYYVVRLPLESAGGSA [r15_386_TrMRF]	0.0639 ± 0.23	-0.0414 ± 0.26
SAGGSAGGSAIKIETQGTPEEAREFAKDFANKNPELLENMKIDVITWRPPEPKYTPNGKPKSAGGSAGGSAG [r3_89_TrROS]	-0.104 ± 0.2	-0.759 ± 0.24
SAGGSAGGPMKPVEYEIPLPGRPITIEVNPPYGYIDIEWPPNGKERTVPMSPGQSAEDILKELFSAGGSAGG [r6_166_TrROS]	-1.41 ± 0.32	< -1
SAGGSAGGSPAIRVERDPETDVLLAEIGHPDGVPALARISPATGTVTVLEGGKLVEVPLPEIGSAGGSAGGS [r12_650_TrMRF]	0.627 ± 0.018	0.113 ± 0.13
SAGGSAGGNNPPKTREIWIPPDDPDDLKDLKIDGPPGDTHHFRNPGGPYRITVTDGDPKVEPWGSAGGSAGG [r6_551_TrROS]	-0.301 ± 0.49	< -1
SAGGEIKIVVSAEELLRKEGKLSEEQRKKLEEALEEAKKLAEEGKEVKVEVEVVPPKPELKPEDKEKKSAGG [r13_731_TrROS_Hall]	0.214 ± 0.086	< -1
SAGGMIEKVEIREVDPETGEVTVTFHVPSEDLEKLGPIPFPGVKEVRFFPGEKTIEARMPLEDALKHSAGGS [r16_614_TrMRF]	0.538 ± 0.098	-0.0448 ± 0.19
SAGMTITIEDLDNGEKVTIEKNPEDPNMVQIEYPNGPEQTFPADEIAEELGLPPSLLQNGIRIKKIKISSAG [r5_156_TrROS]	-0.603 ± 0.23	< -1
SAGGMKLTLTFTETSVLPDGTPVTTTSTTPLSPDVPVEEVAAALAETNPDVTVTVHEPSTGSTRTLRTSAGG [r13_663_JUSTAS]	0.0497 ± 0.13	-0.351 ± 0.14
SAGGAPAAGDVVETETLRLERDEPDTITLTRLRTVEVVLPDGRVLTRTESETVRLEATDEEAVELAESSAGG [r13_544_TrMRF]	0.883 ± 0.22	0.397 ± 0.14
SAGGSAGGSAVVYDENTAIVKTPNKDYLLKVKVGDTVDIPDSAGIPVPVKVEKDFPIPPSELSAGGSAGGSA [r18_244_JUSTAS]	-0.38 ± 0.12	-0.943 ± 0.43
SAGGSAGGSAGKLRFRRVGLVLELNEDGSLSLSPIEEEVEVEVPEPLPVGLGLGGKPYLLSAGGSAGGSAGG [r17_418_TrMRF]	0.325 ± 0.27	-0.0408 ± 0.22
SAGGSAGGSAGGHPVLLTVPRRYTYLLPGTAPRTVTVPVPVVVEVDDPEVALRLARELEGSAGGSAGGSAGG [r7_21_TrMRF]	-0.35 ± 0.73	< -1
SAGGSAGGSAGSPNYIPKEVTIKVEGEGKPVEVKIKLTTSPEGKPASEEEILKKAEELLKSAGGSAGGSAGG [r17_373_JUSTAS]	0.372 ± 0.058	0.0156 ± 0.34
SAGGSAGGSAGGPLLALFDPVPGRVVVVGLRPLPEDSYELDPYVLELDPTTGEAKVRKASAGGSAGGSAGGS [r10_1041_TrMRF]	-0.547 ± 0.42	-0.852 ± 0.59
SAGGSAGGSAGMEPLKEIEVPFPGGWSIEIEVYPNGIKIEPNPNFDNPQMKKRILDALNPSAGGSAGGSAGG [r11_372_TrROS]	-0.0677 ± 0.26	-0.445 ± 0.42
SAGGSAGGSAGELPEGAKVEVREETFTRPDGYLVKRTEVRLEDTDELVTSEEVIEPGEEPSAGGSAGGSAGG [r11_338_TrROS_Hall]	0.899 ± 0.086	0.378 ± 0.06
SAGGMESSVLSVSTITRSAPPGSPLASTTATVTVTKTDGRTIVTVPATGVVYTVNPDGTVTADPVDPPSAGG [r13_721_JUSTAS]	-0.515 ± 0.4	< -1
SAGSVTPLPNGEVVTLTTEKIGNEVYLVTKTTLPDGSVETETTPLKPTPPPPAVPVDVSNPYRAKLALASAG [r5_715_JUSTAS]	-0.472 ± 0.35	-0.814 ± 0.33
SAGGSAGGSAGGTTLLFPDKIIRTLPLPPGAVFDVPPGLTLEGVEEDPSTGTLTVTVKGLSAGGSAGGSAGG [r11_942_JUSTAS]	0.0814 ± 0.14	-0.211 ± 0.24
SAGGSAGGSAGKNNKVKLTYTIEVEGEGKPKKIKIEYYLSPNGIPEPPELIKSKAGGLAKSAGGSAGGSAGG [r17_373_TrMRF]	0.306 ± 0.13	-0.191 ± 0.21
SAGGSAGGSAGGMVPGETVTITIPVPPTGKEVPVEISTTLPPEEREALAEAKAAELEAALSAGGSAGGSAGG [r7_957_JUSTAS]	0.602 ± 0.025	-0.199 ± 0.11
SAGGSAGGSAGMKTKATFVIDNEEYDATIDPGTPKNSTATVTKPDSTTTITVTNIKLFPESAGGSAGGSAGG [r11_247_JUSTAS]	0.897 ± 0.062	0.346 ± 0.11
SAGGSAGGSSSRFEAIKKKILDAFPEDVIKEVKKGPGKIYVVGKPEYIKEIKKLTGSKDIIINSAGGSAGGS [r12_748_JUSTAS]	-0.559 ± 0.36	-0.606 ± 0.34
SAGGSAGGSAGIIEFPFPLNEAKKLAENLPPGFRPVNVEPDPDNDRIWVIIQVVPPKKGKSAGGSAGGSAGG [r17_98_TrROS]	-0.992 ± 0.73	< -1

Sequence	folding stability dG unfold [1] [kcal/mol]	folding stability dG unfold [2] [kcal/mol]
SAGSMTSFPLTLPGGEKISSISVTASPGTEYTTNATLSKDKSKTVTINFDIKPGGEKVVKNISVTTPEESAG [r14_705_JUSTAS]	0.391 ± 0.2	-0.0181 ± 0.1
SAGKTVKVTVEKEVTLENGNKVTVKVEKTVELKPPPPKKITLSPEEIEEIDKETGEIRNKKTNKVFKIKSAG [r5_807_TrROS_Hall]	-0.0446 ± 0.37	< -1
SAGGSAGMPTTVFLTRPGPRAITMRTDPVSGTVTFTLPSGEVTTTPLSTVKELKVPPDIATVTILASAGGSA [r15_1043_JUSTAS]	-0.365 ± 0.29	-0.609 ± 0.24
SAGGSDLSSASFSSSPSTLPDGRSLTTYPAVTLPDGTVATLTVETDPATGAPTVTLTLGDTDIVLATSAGGS [r16_766_JUSTAS]	0.0331 ± 0.32	-0.474 ± 0.25
SSSMTIAKTEVETYPDGVIRTKETFPGSDTYREFDIPVDPSTGKMPVKSTLYDPKTGKSIETTSEIELLESA [r9_825_JUSTAS]	-0.537 ± 0.33	-0.884 ± 0.64
SAGGSAGGSAGPRVKFRFPGQEHTIPPGRRVYFGNGKKFDPGEPLDDIPPDNITPVEIEPSAGGSAGGSAGG [r17_511_TrROS]	-0.297 ± 0.18	-0.609 ± 0.15
SAGGGSSSSSIATETFTKEVEVPTEDGKLKKVLVTTTVSRPISLEPKTGKKYSLSTTVTTTTVSPEELSAGG [r13_312_JUSTAS]	-0.461 ± 0.58	< -1
SADPALEAEARARARAEARARGVERLEFELTREVTRESLVRFPGGELREVVERREVRYRVEVEVPPEAASAG [r14_232_JUSTAS]	0.963 ± 0.077	0.366 ± 0.099
SAGMTVEEAAKEAIEKIPPTTKEVEFEIDLGEKPLIVKIENIPDPETNKPIPKVIVEDPDEPKKVEFEISAG [r5_236_TrMRF]	0.104 ± 0.13	–
SADWLSVPFELLEEKPPPADKPLPEGSSAEVVVEDPLRPGEPIKLEVFYFPEKGILILRYEGKEIEIKVGSA [r9_243_JUSTAS]	0.673 ± 0.49	–
SAPDMQITDVEISEVEKNPDGKRTIEIWMRMDNYTYKATFPADKDGKIKKLSMERDPENNWMRHKIEIDSAG [r14_189_TrROS]	0.283 ± 0.34	–
SAGGSAGGSAGGSMTPITTTEEVDPDFKEETIKVKNFPATTTPIPEENKRTTTIPTSLFSAGGSAGGSAGGS [r4_430_JUSTAS]	–	< -1
SAGGSAGGSAKTYIIPIKDLGPDENGKYHIDIAVEKVKKLFPDENITSVDIDGFEKIGELAESAGGSAGGSA [r18_72_TrMRF]	–	< -1
SAGGSMTTTLDFSDDSTTTITTTPTPDSSSVRSITTTDASGNPLSSTTLNFDPQGNVTETTTSSAPSAGGSA [r2_260_JUSTAS]	–	< -1
SAGGSAGGSMYYLIKTKPPDGKEEYIIDPLPPGGSIEDIIPEDLEIEEIKPFKSKEEAEKYLKSAGGSAGGS [r20_18_JUSTAS]	0.516 ± 0.46	–
SAGGSAGGSEKYRVRFPDGQPLPFPNGKSHPMKPGEEMEIESPEDKDRLKDHFPGFPVEVEPLSAGGSAGGS [r12_987_TrROS]	–	< -1
SAGGSAGGSAMSPSLPGKYEVLLTDPRPGVGPPVTRRVTLTPEEIEATIPPGAGREVVELPSAGGSAGGSAG [r3_223_JUSTAS]	–	< -1
SAGGSAGGSGKKYILRFKNPEKARSFAKPLGLKVKPGDDLPVDDPEKFLKSLPLLKDIVVEDKSAGGSAGGS [r12_571_TrMRF]	–	< -1
SAGGSAGGSMDLEDMKIKSIYIPDNPIMITFKNKGKHRTRTIPEDNWQILKDLLGDGDITIHPSAGGSAGGS [r12_604_TrROS]	–	< -1
SAGGEDIIKELLDQLPPGDKNAVLEFDPPDGKLEPKEPSPGGYMFEPKNPENGEKWTFVIRDDKIEPVSAGG [r13_803_TrROS]	–	< -1
SPPYRATVEMEAPNGEPIGEEEFPIKPGKNLMFMMPAPARVRIEIEDPDEGEPREQEYDPRSGMLHFPLKSA [r9_272_TrROS]	–	< -1
SAGGSAGGSAKIIVWGRTPEGAKEKAKEFADNIQKEMQENGMPPKNIKIPIEIFDPEAMPDSAGGSAGGSAG [r3_249_TrROS]	–	< -1
SAGGGPPLRVSTESEVYEDPETGVTYVRRRIHVEGGLVVEEELKETVNPEDPGAEVTLVSRRESPALSAGGS [r8_241_JUSTAS]	–	< -1
SAGGSAGGSAGGWLKGMPFKITKITDVRRNPENGRRWLTIRMPNPNRPVTVPLDDLPPGLSAGGSAGGSAGG [r7_304_TrROS]	–	< -1
SAGGMTKTYDPNGRTITELPDGTVVETTVDPSKPLTKVTTTTVEGDNVVSSTEILQEVSLPETSPYLSAGGS [r8_142_JUSTAS]	–	< -1
